Values quoted from earlier work, collected in patent US20180221339A1, “COMPOSITIONS AND METHODS FOR TREATING AND DIAGNOSING OCULAR DISORDERS” (TRANSLATUM MEDICUS, INC., priority 2015, published 2018).

Biological target: T1, complement factor D (CFD) (Homo sapiens, UniProt P00746)
T1 construct: host or cells: patients (endogenous protein, in vivo)
Settings: phase II study, 18 month period; most robust in patients with complement factor H and I polymorphisms

T1 sequence (P00746 26-253): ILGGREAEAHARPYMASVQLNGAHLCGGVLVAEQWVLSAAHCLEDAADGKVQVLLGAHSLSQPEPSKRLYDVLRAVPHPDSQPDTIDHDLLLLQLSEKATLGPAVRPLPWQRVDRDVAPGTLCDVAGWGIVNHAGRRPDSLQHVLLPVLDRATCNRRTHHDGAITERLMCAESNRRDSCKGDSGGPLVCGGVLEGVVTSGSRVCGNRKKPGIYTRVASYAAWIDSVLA

In the case of “Lampilizumab: complement factor D (CFD) inhibitor; anti-factor D antibody (Genentech)”, the “growth (expansion) of geographic atrophy” value is listed as “can slow the growth, i.e. expansion, of geographic atrophy”.
